In patent publication US20250163162A1:

T1: IL10Rα and IL2Rγ on human primary cells (CD8 T cells, CD4 T cells, monocytes) (human) (UniProt Q13651)
T1 sequence (looked up) 1: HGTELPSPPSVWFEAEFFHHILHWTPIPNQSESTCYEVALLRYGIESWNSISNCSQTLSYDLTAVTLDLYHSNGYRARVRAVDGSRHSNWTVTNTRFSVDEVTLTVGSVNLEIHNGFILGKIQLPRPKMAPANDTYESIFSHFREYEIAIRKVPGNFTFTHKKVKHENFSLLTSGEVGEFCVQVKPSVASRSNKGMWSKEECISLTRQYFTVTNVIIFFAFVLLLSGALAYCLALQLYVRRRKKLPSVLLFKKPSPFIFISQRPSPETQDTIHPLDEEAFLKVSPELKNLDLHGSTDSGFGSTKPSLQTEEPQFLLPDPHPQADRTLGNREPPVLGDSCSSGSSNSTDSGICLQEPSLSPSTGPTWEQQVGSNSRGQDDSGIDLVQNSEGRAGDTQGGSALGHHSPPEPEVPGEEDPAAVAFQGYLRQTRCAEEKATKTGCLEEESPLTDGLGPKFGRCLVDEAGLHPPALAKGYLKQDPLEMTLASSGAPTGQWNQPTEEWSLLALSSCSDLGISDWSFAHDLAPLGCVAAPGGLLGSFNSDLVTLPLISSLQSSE
T1 sequence (looked up) 2: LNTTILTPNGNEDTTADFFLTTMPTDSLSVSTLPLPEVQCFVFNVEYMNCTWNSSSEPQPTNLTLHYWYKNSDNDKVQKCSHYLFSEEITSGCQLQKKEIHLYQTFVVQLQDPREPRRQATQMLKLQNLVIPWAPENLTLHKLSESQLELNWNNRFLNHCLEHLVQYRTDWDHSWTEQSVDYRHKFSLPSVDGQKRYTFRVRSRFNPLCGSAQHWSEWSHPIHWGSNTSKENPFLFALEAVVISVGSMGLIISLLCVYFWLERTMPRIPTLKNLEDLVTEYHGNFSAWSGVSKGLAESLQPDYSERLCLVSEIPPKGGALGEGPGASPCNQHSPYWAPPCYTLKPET


Target: T1, IL10Rα and IL2Rγ on human primary cells (CD8 T cells, CD4 T cells, monocytes) (human)
Assay: cell-based or functional assay

pSTAT3 (MFI) in CD4 T cells at 0.0001 µM [MFI]	pSTAT3 (MFI) in CD4 T cells at 0.001 µM [MFI]	pSTAT3 (MFI) in CD4 T cells at 0.01 µM [MFI]	pSTAT3 (MFI) in CD4 T cells at 0.1 µM [MFI]	pSTAT3 (MFI) in CD4 T cells at 1 µM [MFI]	pSTAT3 (MFI) in CD4 T cells at 10 µM [MFI]	pSTAT3 (MFI) in CD4 T cells at 100 µM [MFI]	pSTAT3 (MFI) in CD8 T cells at 0.0001 µM [MFI]	pSTAT3 (MFI) in CD8 T cells at 0.001 µM [MFI]	pSTAT3 (MFI) in CD8 T cells at 0.01 µM [MFI]	Binder
11700	12800	13600	10900	12900	12600	11600	7400	8110	8110	hIL10Ra_VHH14-hIL2Rg_VHH19, linker GS, tag his (bispecific antibody, not shown: small tags and cut ends) QVQLQESGGGSVQAGGSLRLSCGASGYTYSSYCMGWFRQVPGKEREGVAVIDSDGSTSYADSVKGRFTISKDNGKNTLYLQMNSLKPEDTAMYYCAADLGHYRPPCGVLYLGMDYWGKGTQVTVSSGSQVQLQESGGGSVQAGGSLRLSCTASGFTFDDREMNWYRQAPGNECELVSTISSDGSTYYADSVKGRFTISQDNAKNTVYLQMDSVKPEDTAVYYCAADFMIAIQAPGAGCWGQGTQVTVSS
13200	13900	12800	13600	13000	11800	10200	7960	8500	7660	hIL10Ra_VHH14-hIL2Rg_VHH19, linker GGSGGS, tag his (bispecific antibody, not shown: small tags and cut ends) QVQLQESGGGSVQAGGSLRLSCGASGYTYSSYCMGWFRQVPGKEREGVAVIDSDGSTSYADSVKGRFTISKDNGKNTLYLQMNSLKPEDTAMYYCAADLGHYRPPCGVLYLGMDYWGKGTQVTVSSGGSGGSQVQLQESGGGSVQAGGSLRLSCTASGFTFDDREMNWYRQAPGNECELVSTISSDGSTYYADSVKGRFTISQDNAKNTVYLQMDSVKPEDTAVYYCAADFMIAIQAPGAGCWGQGTQVTVSS

Same assay, conditions: not given

pSTAT3 (MFI) in CD8 T cells at 0.1 µM [MFI]	pSTAT3 (MFI) in CD8 T cells at 1 µM [MFI]	pSTAT3 (MFI) in CD8 T cells at 10 µM [MFI]	pSTAT3 (MFI) in CD8 T cells at 100 µM [MFI]	pSTAT3 (MFI) in monocytes at 0.0001 µM [MFI]	pSTAT3 (MFI) in monocytes at 0.001 µM [MFI]	pSTAT3 (MFI) in monocytes at 0.01 µM [MFI]	pSTAT3 (MFI) in monocytes at 0.1 µM [MFI]	pSTAT3 (MFI) in monocytes at 1 µM [MFI]	pSTAT3 (MFI) in monocytes at 10 µM [MFI]	Binder
7100	8200	8410	7900	4040	4820	4010	4430	4790	4930	hIL10Ra_VHH14-hIL2Rg_VHH19, linker GS, tag his (bispecific antibody, not shown: small tags and cut ends) QVQLQESGGGSVQAGGSLRLSCGASGYTYSSYCMGWFRQVPGKEREGVAVIDSDGSTSYADSVKGRFTISKDNGKNTLYLQMNSLKPEDTAMYYCAADLGHYRPPCGVLYLGMDYWGKGTQVTVSSGSQVQLQESGGGSVQAGGSLRLSCTASGFTFDDREMNWYRQAPGNECELVSTISSDGSTYYADSVKGRFTISQDNAKNTVYLQMDSVKPEDTAVYYCAADFMIAIQAPGAGCWGQGTQVTVSS
8160	7720	8300	7000	4220	4680	4560	4470	4750	4890	hIL10Ra_VHH14-hIL2Rg_VHH19, linker GGSGGS, tag his (bispecific antibody, not shown: small tags and cut ends) QVQLQESGGGSVQAGGSLRLSCGASGYTYSSYCMGWFRQVPGKEREGVAVIDSDGSTSYADSVKGRFTISKDNGKNTLYLQMNSLKPEDTAMYYCAADLGHYRPPCGVLYLGMDYWGKGTQVTVSSGGSGGSQVQLQESGGGSVQAGGSLRLSCTASGFTFDDREMNWYRQAPGNECELVSTISSDGSTYYADSVKGRFTISQDNAKNTVYLQMDSVKPEDTAVYYCAADFMIAIQAPGAGCWGQGTQVTVSS

Same assay, conditions: not given

pSTAT3 (MFI) in monocytes at 100 µM [MFI]	Binder
4930	hIL10Ra_VHH14-hIL2Rg_VHH19, linker GS, tag his (bispecific antibody, not shown: small tags and cut ends) QVQLQESGGGSVQAGGSLRLSCGASGYTYSSYCMGWFRQVPGKEREGVAVIDSDGSTSYADSVKGRFTISKDNGKNTLYLQMNSLKPEDTAMYYCAADLGHYRPPCGVLYLGMDYWGKGTQVTVSSGSQVQLQESGGGSVQAGGSLRLSCTASGFTFDDREMNWYRQAPGNECELVSTISSDGSTYYADSVKGRFTISQDNAKNTVYLQMDSVKPEDTAVYYCAADFMIAIQAPGAGCWGQGTQVTVSS
4730	hIL10Ra_VHH14-hIL2Rg_VHH19, linker GGSGGS, tag his (bispecific antibody, not shown: small tags and cut ends) QVQLQESGGGSVQAGGSLRLSCGASGYTYSSYCMGWFRQVPGKEREGVAVIDSDGSTSYADSVKGRFTISKDNGKNTLYLQMNSLKPEDTAMYYCAADLGHYRPPCGVLYLGMDYWGKGTQVTVSSGGSGGSQVQLQESGGGSVQAGGSLRLSCTASGFTFDDREMNWYRQAPGNECELVSTISSDGSTYYADSVKGRFTISQDNAKNTVYLQMDSVKPEDTAVYYCAADFMIAIQAPGAGCWGQGTQVTVSS
